Assay results taken from article PMC10397247.
Each block holds one binder with its values, some of them ahead of it.

Tests used:
4H3354-bN = biological target: T1, 4H3354-bN; assay: two-hybrid library CCNG1;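 note: natural log of median RNA to DNA barcode read ratio; higher means stronger binding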
T1 chain: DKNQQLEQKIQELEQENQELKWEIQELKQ

4H918-bN = biological target: T2, 4H918-bN; assay: two-hybrid library CCNG1;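 note: natural log of median RNA to DNA barcode read ratio; higher means stronger binding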
T2 chain: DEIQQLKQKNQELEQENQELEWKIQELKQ

4H454-bN = biological target: T3, 4H454-bN; assay: two-hybrid library CCNG1;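 note: natural log of median RNA to DNA barcode read ratio; higher means stronger binding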
T3 chain: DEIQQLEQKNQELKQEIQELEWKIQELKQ

4H687-bN = biological target: T4, 4H687-bN; assay: two-hybrid library CCNG1;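 note: natural log of median RNA to DNA barcode read ratio; higher means stronger binding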
T4 chain: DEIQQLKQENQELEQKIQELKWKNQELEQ

4H331-bN = biological target: T5, 4H331-bN; assay: two-hybrid library CCNG1;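 note: natural log of median RNA to DNA barcode read ratio; higher means stronger binding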
T5 chain: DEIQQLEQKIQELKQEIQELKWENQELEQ

4H3855-bN = biological target: T6, 4H3855-bN; assay: two-hybrid library CCNG1;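 note: natural log of median RNA to DNA barcode read ratio; higher means stronger binding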
T6 chain: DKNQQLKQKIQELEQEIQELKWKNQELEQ

4H717-bN = biological target: T7, 4H717-bN; assay: two-hybrid library CCNG1
T7 chain: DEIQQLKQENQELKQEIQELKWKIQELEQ

4H883-bN = biological target: T8, 4H883-bN; assay: two-hybrid library CCNG1
T8 chain: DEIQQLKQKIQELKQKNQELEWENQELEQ

P9SHb = biological target: T9, P9SHb; assay: two-hybrid library CCNG1
T9 chain: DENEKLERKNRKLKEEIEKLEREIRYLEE

4H4001-bN = biological target: T10, 4H4001-bN; assay: two-hybrid library CCNG1
T10 chain: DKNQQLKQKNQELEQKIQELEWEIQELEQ

4H72-bN = biological target: T11, 4H72-bN; assay: two-hybrid library CCNG1
T11 chain: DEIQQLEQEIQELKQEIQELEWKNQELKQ

4H338-bN = biological target: T12, 4H338-bN; assay: two-hybrid library CCNG1
T12 chain: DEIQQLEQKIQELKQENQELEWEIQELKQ

4H568-bN = biological target: T13, 4H568-bN; assay: two-hybrid library CCNG1
T13 chain: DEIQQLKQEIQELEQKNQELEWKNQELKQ

4H953-bN = biological target: T14, 4H953-bN; assay: two-hybrid library CCNG1
T14 chain: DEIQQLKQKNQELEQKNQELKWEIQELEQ

4H607-bN = biological target: T15, 4H607-bN; assay: two-hybrid library CCNG1
T15 chain: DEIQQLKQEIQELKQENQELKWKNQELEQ

4H797-bN = biological target: T16, 4H797-bN; assay: two-hybrid library CCNG1
T16 chain: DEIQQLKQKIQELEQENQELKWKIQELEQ

4H754-bN = biological target: T17, 4H754-bN; assay: two-hybrid library CCNG1
T17 chain: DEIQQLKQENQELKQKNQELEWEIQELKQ

P4mS = biological target: T18, P4mS; assay: two-hybrid library CCNG1
T18 chain: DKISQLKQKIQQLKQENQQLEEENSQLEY

4H3427-bN = biological target: T19, 4H3427-bN; assay: two-hybrid library CCNG1
T19 chain: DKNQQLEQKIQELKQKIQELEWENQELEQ

4H908-bN = biological target: T20, 4H908-bN; assay: two-hybrid library CCNG1
T20 chain: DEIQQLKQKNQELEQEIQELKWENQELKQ

4H3782-bN = biological target: T21, 4H3782-bN; assay: two-hybrid library CCNG1
T21 chain: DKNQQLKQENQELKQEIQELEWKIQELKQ

4H967-bN = biological target: T22, 4H967-bN; assay: two-hybrid library CCNG1
T22 chain: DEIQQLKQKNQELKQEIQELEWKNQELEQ

4H3185-bN = biological target: T23, 4H3185-bN; assay: two-hybrid library CCNG1
T23 chain: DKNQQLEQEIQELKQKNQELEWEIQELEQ

4H87-AA = biological target: T24, 4H87-AA; assay: two-hybrid library CCmax
T24 chain: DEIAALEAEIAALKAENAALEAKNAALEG

4H2187-AA = biological target: T25, 4H2187-AA; assay: two-hybrid library CCmax; conditions: mean of both orientations
T25 chain: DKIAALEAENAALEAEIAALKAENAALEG

4H2687-AA = biological target: T26, 4H2687-AA; assay: two-hybrid library CCmax; conditions: mean of both orientations
T26 chain: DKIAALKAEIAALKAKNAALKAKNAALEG

4H233-AA = biological target: T27, 4H233-AA; assay: two-hybrid library CCmax; conditions: mean of both orientations
T27 chain: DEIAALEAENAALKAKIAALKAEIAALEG

4H1985-AA = biological target: T28, 4H1985-AA; assay: two-hybrid library CCmax
T28 chain: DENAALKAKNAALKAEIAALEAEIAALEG

4H2646-AA = biological target: T29, 4H2646-AA; assay: two-hybrid library CCmax; conditions: mean of both orientations
T29 chain: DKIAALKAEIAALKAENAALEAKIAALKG

4H816-AA = biological target: T30, 4H816-AA; assay: two-hybrid library CCmax; conditions: mean of both orientations
T30 chain: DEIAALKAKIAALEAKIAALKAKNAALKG

4H2705-AA = biological target: T31, 4H2705-AA; assay: two-hybrid library CCmax; conditions: mean of both orientations
T31 chain: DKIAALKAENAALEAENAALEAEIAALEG

4H3409-AA = biological target: T32, 4H3409-AA; assay: two-hybrid library CCmax; conditions: mean of both orientations
T32 chain: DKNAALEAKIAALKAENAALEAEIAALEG

4H3134-AA = biological target: T33, 4H3134-AA; assay: two-hybrid library CCmax; conditions: mean of both orientations
T33 chain: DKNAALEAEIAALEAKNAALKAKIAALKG

4H510-AA = biological target: T34, 4H510-AA; assay: two-hybrid library CCmax; conditions: mean of both orientations
T34 chain: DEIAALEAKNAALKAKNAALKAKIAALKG

4H2512-AA = biological target: T35, 4H2512-AA; assay: two-hybrid library CCmax; conditions: mean of both orientations
T35 chain: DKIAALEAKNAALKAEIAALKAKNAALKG

4H3940-AA = biological target: T36, 4H3940-AA; assay: two-hybrid library CCmax; conditions: mean of both orientations
T36 chain: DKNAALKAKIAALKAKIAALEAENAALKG

4H278-AA = biological target: T37, 4H278-AA; assay: two-hybrid library CCmax; conditions: mean of both orientations
T37 chain: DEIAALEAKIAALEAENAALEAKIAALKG

4H2758-AA = biological target: T38, 4H2758-AA; assay: two-hybrid library CCmax; conditions: mean of both orientations
T38 chain: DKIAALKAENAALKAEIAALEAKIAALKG

4H775-AA = biological target: T39, 4H775-AA; assay: two-hybrid library CCmax; conditions: mean of both orientations
T39 chain: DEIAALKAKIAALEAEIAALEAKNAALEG

4H2873-AA = biological target: T40, 4H2873-AA; assay: two-hybrid library CCmax; conditions: mean of both orientations
T40 chain: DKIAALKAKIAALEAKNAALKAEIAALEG

4H3625-AA = biological target: T41, 4H3625-AA; assay: two-hybrid library CCmax; conditions: mean of both orientations
T41 chain: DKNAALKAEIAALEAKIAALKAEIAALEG

4H390-AA = biological target: T42, 4H390-AA; assay: two-hybrid library CCmax; conditions: mean of both orientations
T42 chain: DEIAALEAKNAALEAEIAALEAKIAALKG

4H2985-AA = biological target: T43, 4H2985-AA; assay: two-hybrid library CCmax; conditions: mean of both orientations
T43 chain: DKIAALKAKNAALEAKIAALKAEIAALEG

interaction score (4H3354-bN): -0.593
interaction score (4H918-bN): -1.19
interaction score (4H454-bN): -2.08
interaction score (4H687-bN): -2.77
interaction score (4H331-bN): -2.02
interaction score (4H3855-bN): -1.23
interaction score (4H717-bN): -0.903
interaction score (4H883-bN): -1.12
interaction score (P9SHb): -0.815
interaction score (4H4001-bN): -1.46
interaction score (4H72-bN): -2.24
interaction score (4H338-bN): -1.14
interaction score (4H568-bN): -2.82
interaction score (4H953-bN): -1.45
interaction score (4H607-bN): -0.581
interaction score (4H797-bN): -0.638
interaction score (4H754-bN): -0.979
interaction score (P4mS): -0.366
interaction score (4H3427-bN): -0.99
interaction score (4H908-bN): -0.952
interaction score (4H3782-bN): -0.997
interaction score (4H967-bN): -2.19
interaction score (4H3185-bN): -1.05
B1: 4H3185-bN (peptide)
chain: DKNQQLEQEIQELKQKNQELEWEIQELEQ

interaction score (4H87-AA): -1.37
interaction score (4H2187-AA): -2.04
interaction score (4H2687-AA): -1.92
interaction score (4H233-AA): 0.704
interaction score (4H1985-AA): -1.91
interaction score (4H2646-AA): 0.352
interaction score (4H816-AA): -0.103
interaction score (4H2705-AA): -1.05
interaction score (4H3409-AA): -1.05
interaction score (4H3134-AA): -0.682
interaction score (4H510-AA): -0.896
interaction score (4H2512-AA): -1.41
interaction score (4H3940-AA): -0.542
interaction score (4H278-AA): -1.45
interaction score (4H2758-AA): 0.628
interaction score (4H775-AA): -1.28
interaction score (4H2873-AA): -1.18
interaction score (4H3625-AA): -0.122
interaction score (4H390-AA): 1.06
interaction score (4H2985-AA): -0.418
B2: 4H1985-AA (peptide)
chain: DENAALKAKNAALKAEIAALEAEIAALEG
